Legend:
Test in all cases: cell-based or functional assay
FRETS-VWF73 substrate = FRETS-VWF73 substrate (UniProt P04275)
[1] = biological target: recombinant VWF (full-length, multimeric rVWF) (UniProt P04275)
[2] = biological target: von Willebrand factor (VWF), substrate of the in vitro cleavage of Table 1 (UniProt P04275)

specific activity U/mg (UV); Sample 1, 59 % Q97R (FRETS-VWF73 substrate): 1640 U/mg (UV)
specific activity U/mg (UV); Sample 2, 64 % Q97R (FRETS-VWF73 substrate): 1580 U/mg (UV)
specific activity U/mg (UV); Sample 3, 59 % Q97R (FRETS-VWF73 substrate): 1400 U/mg (UV)
specific activity U/mg (UV); Sample 4, 56 % Q97R (FRETS-VWF73 substrate): 1460 U/mg (UV)
specific activity U/mg (UV); Sample 5, 55 % Q97R (FRETS-VWF73 substrate): 1360 U/mg (UV)
specific activity U/mg (UV); Sample 6, 64 % Q97R (FRETS-VWF73 substrate): 1470 U/mg (UV)
specific activity U/mg (UV); Sample 7, 66 % Q97R (FRETS-VWF73 substrate): 2040 U/mg (UV)
specific activity U/mg (UV); Sample 8, 70 % Q97R (FRETS-VWF73 substrate): 1610 U/mg (UV)
specific activity U/mg (UV); Sample 9, 67 % Q97R (FRETS-VWF73 substrate): 1480 U/mg (UV)
specific activity U/mg (UV); Sample 10, 67 % Q97R (FRETS-VWF73 substrate): 1450 U/mg (UV)
specific activity U/mg (UV); Sample 11, 60 % Q97R (FRETS-VWF73 substrate): 1580 U/mg (UV)
specific activity U/mg (UV); Sample 12, 60 % Q97R (FRETS-VWF73 substrate): 1620 U/mg (UV)
specific activity U/mg (UV); Sample 13, 71 % Q97R (FRETS-VWF73 substrate): 1970 U/mg (UV)
specific activity U/mg (UV); Sample 14, 59 % Q97R (FRETS-VWF73 substrate): 1390 U/mg (UV)
specific activity U/mg (UV); Sample 15, 52 % Q97R (FRETS-VWF73 substrate): 1330 U/mg (UV)
specific activity U/mg (UV); Sample 16, 57 % Q97R (FRETS-VWF73 substrate): 1410 U/mg (UV)
specific activity U/mg (UV); Sample 17, 61 % Q97R (FRETS-VWF73 substrate): 1380 U/mg (UV)
specific activity U/mg (UV); Sample 18, 63 % Q97R (FRETS-VWF73 substrate): 1440 U/mg (UV)
specific activity U/mg (UV); Sample 19, 54 % Q97R (FRETS-VWF73 substrate): 1660 U/mg (UV)
specific activity U/mg (UV); Sample 20, 64 % Q97R (FRETS-VWF73 substrate): 1700 U/mg (UV)
specific activity U/mg (UV); Sample 21, 64 % Q97R (FRETS-VWF73 substrate): 1690 U/mg (UV)
specific activity U/mg (UV); Sample 22, 66 % Q97R (FRETS-VWF73 substrate): 1620 U/mg (UV)
specific activity U/mg (UV); Sample 23, 61 % Q97R (FRETS-VWF73 substrate): 1540 U/mg (UV)
specific activity U/mg (UV); Sample 24, 62 % Q97R (FRETS-VWF73 substrate): 1510 U/mg (UV)
specific activity U/mg (UV); Sample 25, 61 % Q97R (FRETS-VWF73 substrate): 1530 U/mg (UV)
specific activity U/mg (UV); Sample 26, 61 % Q97R (FRETS-VWF73 substrate): 1760 U/mg (UV)
specific activity U/mg (UV); Sample 27, 59 % Q97R (FRETS-VWF73 substrate): 1860 U/mg (UV)
specific activity U/mg (UV); Sample 28, 60 % Q97R (FRETS-VWF73 substrate): 1750 U/mg (UV)
specific activity U/mg (UV); Sample 29, 55 % Q97R (FRETS-VWF73 substrate): 1730 U/mg (UV)
specific activity U/mg (UV); Sample 30, 60 % Q97R (FRETS-VWF73 substrate): 1850 U/mg (UV)
specific activity U/mg (UV); Sample 31, 64 % Q97R (FRETS-VWF73 substrate): 1800 U/mg (UV)
specific activity U/mg (UV); Sample 32, 60 % Q97R (FRETS-VWF73 substrate): 1750 U/mg (UV)
specific activity U/mg (UV); Sample 33, 65 % Q97R (FRETS-VWF73 substrate): 1620 U/mg (UV)
specific activity U/mg (UV); Sample 34, 61 % Q97R (FRETS-VWF73 substrate): 1720 U/mg (UV)
specific activity U/mg (UV); Sample 35, 72 % Q97R (FRETS-VWF73 substrate): 1650 U/mg (UV)
cleavage of multimeric rVWF [%]; Sample 1, 59 % Q97R [1]: 58%
cleavage of multimeric rVWF [%]; Sample 2, 64 % Q97R [1]: 52%
cleavage of multimeric rVWF [%]; Sample 3, 59 % Q97R [1]: 51%
cleavage of multimeric rVWF [%]; Sample 4, 56 % Q97R [1]: 60%
cleavage of multimeric rVWF [%]; Sample 5, 55 % Q97R [1]: 52%
cleavage of multimeric rVWF [%]; Sample 6, 64 % Q97R [1]: 57%
cleavage of multimeric rVWF [%]; Sample 7, 66 % Q97R [1]: 62%
cleavage of multimeric rVWF [%]; Sample 9, 67 % Q97R [1]: 62%
cleavage of multimeric rVWF [%]; Sample 10, 67 % Q97R [1]: 60%
cleavage of multimeric rVWF [%]; Sample 11, 60 % Q97R [1]: 61%
cleavage of multimeric rVWF [%]; Sample 12, 60 % Q97R [1]: 59%
cleavage of multimeric rVWF [%]; Sample 13, 71 % Q97R [1]: 60%
cleavage of multimeric rVWF [%]; Sample 14, 59 % Q97R [1]: 55%
cleavage of multimeric rVWF [%]; Sample 15, 52 % Q97R [1]: 59%
cleavage of multimeric rVWF [%]; Sample 16, 57 % Q97R [1]: 66%
cleavage of multimeric rVWF [%]; Sample 17, 61 % Q97R [1]: 58%
cleavage of multimeric rVWF [%]; Sample 18, 63 % Q97R [1]: 55%
cleavage of multimeric rVWF [%]; Sample 19, 54 % Q97R [1]: 78%
cleavage of multimeric rVWF [%]; Sample 20, 64 % Q97R [1]: 78%
cleavage of multimeric rVWF [%]; Sample 21, 64 % Q97R [1]: 75%
cleavage of multimeric rVWF [%]; Sample 22, 66 % Q97R [1]: 65%
cleavage of multimeric rVWF [%]; Sample 23, 61 % Q97R [1]: 66%
cleavage of multimeric rVWF [%]; Sample 24, 62 % Q97R [1]: 63%
cleavage of multimeric rVWF [%]; Sample 25, 61 % Q97R [1]: 63%
cleavage of multimeric rVWF [%]; Sample 26, 61 % Q97R [1]: 67%
cleavage of multimeric rVWF [%]; Sample 27, 59 % Q97R [1]: 67%
cleavage of multimeric rVWF [%]; Sample 28, 60 % Q97R [1]: 67%
cleavage of multimeric rVWF [%]; Sample 29, 55 % Q97R [1]: 68%
cleavage of multimeric rVWF [%]; Sample 30, 60 % Q97R [1]: 67%
cleavage of multimeric rVWF [%]; Sample 31, 64 % Q97R [1]: 71%
cleavage of multimeric rVWF [%]; Sample 32, 60 % Q97R [1]: 62%
cleavage of multimeric rVWF [%]; Sample 33, 65 % Q97R [1]: 78%
cleavage of multimeric rVWF [%]; Sample 34, 61 % Q97R [1]: 65%
cleavage of multimeric rVWF [%]; Sample 35, 72 % Q97R [1]: 66%
IU VWF RCo/ml left; ADAMTS13 0.1 U/ml, 0 h (IU VWF RCo/ml) [2]: 0.72
IU VWF RCo/ml left; ADAMTS13 0.1 U/ml, 15 seconds (IU VWF RCo/ml) [2]: 0.33
IU VWF RCo/ml left; ADAMTS13 0.1 U/ml, 30 seconds (IU VWF RCo/ml) [2]: 0.34
IU VWF RCo/ml left; ADAMTS13 0.1 U/ml, 1 minute (IU VWF RCo/ml) [2]: 0.3
IU VWF RCo/ml left; ADAMTS13 0.1 U/ml, 2 minutes (IU VWF RCo/ml) [2]: 0.24
IU VWF RCo/ml left; ADAMTS13 0.1 U/ml, 5 minutes (IU VWF RCo/ml) [2]: < 0.17
IU VWF RCo/ml left; ADAMTS13 0.5 U/ml, 0 h (IU VWF RCo/ml) [2]: 0.78
IU VWF RCo/ml left; ADAMTS13 0.5 U/ml, 15 seconds (IU VWF RCo/ml) [2]: < 0.17
IU VWF RCo/ml left; ADAMTS13 0.5 U/ml, 30 seconds (IU VWF RCo/ml) [2]: < 0.17
IU VWF RCo/ml left; ADAMTS13 0.5 U/ml, 1 minute (IU VWF RCo/ml) [2]: < 0.17
IU VWF RCo/ml left; ADAMTS13 0.5 U/ml, 2 minutes (IU VWF RCo/ml) [2]: < 0.17
IU VWF RCo/ml left; ADAMTS13 0.5 U/ml, 5 minutes (IU VWF RCo/ml) [2]: < 0.17
IU VWF RCo/ml left; ADAMTS13 1.0 U/ml, 0 h (IU VWF RCo/ml) [2]: 0.56
IU VWF RCo/ml left; ADAMTS13 1.0 U/ml, 15 seconds (IU VWF RCo/ml) [2]: < 0.17
IU VWF RCo/ml left; ADAMTS13 1.0 U/ml, 30 seconds (IU VWF RCo/ml) [2]: < 0.17
IU VWF RCo/ml left; ADAMTS13 1.0 U/ml, 1 minute (IU VWF RCo/ml) [2]: < 0.17
IU VWF RCo/ml left; ADAMTS13 1.0 U/ml, 2 minutes (IU VWF RCo/ml) [2]: < 0.17
IU VWF RCo/ml left; ADAMTS13 1.0 U/ml, 5 minutes (IU VWF RCo/ml) [2]: < 0.17
Substance: rADAMTS13 batches composed of a mixture of wildtype rADAMTS13 and Q97R variant
